# Assay results reported in paper PMC5913134, “The IL-33-PIN1-IRAK-M axis is critical for type 2 immunity in IL-33-induced allergic airway inflammation” (Nature Communications, 2018).
# Key:
# [1] = test system: Il6, Csf3, Cxcl2 and Ccl5 expression in DC2.4 cells; test: qRT-PCR of Il6, Csf3, Cxcl2 and Ccl5 in DC2.4 cells; assay type: cell-based, C57BL/6; conditions: IL-33, pLKO control DC2.4 cells
# Procedure: Also as indicated, some cells were pretreated for 3 days with 5 μM or 10 μM of ATRA before IL-33 induction. e Relative gene expression of Il6, Csf3, Cxcl2 and Ccl5 in the different samples as in d normalized to actin. f IRAK-M was stably expressed in pLKO or TET on shPin1 expressing cells, followed by induction with IL-33, before western blot to examine protein expression of IRAK-M, PIN1 and tubulin as well as g qRT-PCR to determine the relative gene expression for Il6, Csf3, Cxcl2 and Ccl5 in the different samples.
# SYBR Green PCR Master Mix (Applied Biosystems, Foster City, CA) was used for two-step real-time RT-PCR analysis on an Applied Biosystems StepOnePlus Real Time PCR instrument. […] Expression value of the targeted gene in a given sample was normalized to the corresponding expression of Actin. The 2^–ΔΔCt method was used to calculate relative expression of the targeted genes.
# [2] = test system: naive CD4^+ cells co-cultured with BMDCs; test: BMDC / naive CD4+ T cell co-culture TH2 polarization, IL-5 and IL-13 secretion; assay type: cell-based, C57 B6 mice; conditions: WT BMDC + naive CD4+ T cells, IL-33 50 ng/ml, 5 days
# Procedure: Supplementary Figure 7. IRAK-M KO or Pin1 KO derived bone marrow dendritic cells attenuates Naïve TH2 cell differentiation upon IL-33 induction in co culture experiment. Naïve CD4+ T cells isolated from C57 B6 mice were cultured with or without IL-33 (50ng/ml) and BMDCs isolated from WT, IRAK-M KO (a) or Pin1 KO mice (b) in a 1:5 ratio for 5 days with no antigen being added. In some cases as indicated 5 µM of ATRA was added to the medium two days prior to T cell co culturing and during the experiment. Supernatants were analyzed for cytokines on day 5. The data were analyzed by a Student's two-tailed t test and the values are reported as mean ± standard errors of the means (SEM). *- statistical significance (P<0.05), **- significance (P<0.01).
# [3] = test system: mouse embryonic fibroblasts (MEFs); test: IL-6 secretion by MEFs; assay type: cell-based; conditions: PIN1 KO MEFs, all IL-33 concentrations tested, 24 h
# Procedure: Fig. 1 PIN1 is required for IL-33 to induces TH2 polarization and allergic inflammation. a 5 and15 min after IL-33 treatment of DC2.4 cells, cells were extracted and PIN1 activity was measured as previously described. Inset: PIN1 was immune precipitated and immune blotted for PIN1 or Ser71 phosphorylation as indicated. b WT and PIN1 KO MEF’s were treated with different concentrations of IL-33 for 24 h and the medium was measured for IL-6 secretion. c WT and PIN1 KO mice were treated with 200 ng/mice/day for 4 consecutive days and the BALF was examined for IL-4, 5, 6 and 13 by ELISA. d H&E staining representative of lungs from WT and PIN1 KO mice treated with IL-33 (n = 4). Scale bar = 50 µm. e Total cell number in the BALF of WT and PIN1 KO mice was measured using HEMAVET multispecies hematology analyzer. f Eosinophil cell number in the BALF of WT and PIN1 KO mice was measured using HEMAVET multispecies hematology analyzer. g Representative H&E staining of lung sections from WT and PIN1 KO mice after OVA-induced allergic asthma (n = 4). Scale bar = 50 µm. h IL-4, -5, -13 and IL-33 levels in the BALF of WT and PIN1 KO mice after OVA-induced allergic asthma. […] The data were analyzed by a Student’s two-tailed t test unless stated otherwise, and the values are reported as mean ± standard errors of the means (SEM). *- statistical significance (P < 0.05), **- significance (P < 0.01)
# [4] = test system: IRAK-M; test: IRAK-M phosphorylation in DC2.4 cells; assay type: cell-based, C57BL/6; conditions: DC2.4; IL-33 100 ng/ml, 1 h, γ-32P labeling
# Procedure: Fig. 2 IL-33 induces IRAK-M phosphorylation and binding to PIN1. a GST PIN1 pulldown assay with DC2.4 cell extracts either non-treated or treated with IL-33 (100 ng/ml) or LPS (100ng/ml) for 1 h. […] The cells were washed with fresh medium and treated with 100 ng/ml IL-33 for the indicated times prior to IRAK-M immunoprecipitation. d DC2.4 cells stably expressing IRAK-M were treated with IL-33 and at the indicated time points were subjected to CO-IP using anti-PIN1 antibody and blotted for IRAK-M. e HEK293 cells were transfected with different IRAK-M constructs expressing the N’ terminal domain (aa1-220), the middle portion of the protein (aa220-440) or the C’ terminal domain (aa 440-630), and then treated with IL-33, followed by CO-IP for PIN1. f DC2.4 cells stably expressing IRAK-M were treated with IL-33 and subjected to GST or GST-PIN1 pull-down.
# [5] = test system: WT, PIN1 KO and IRAK-M KO mice; test: IL-33-induced airway inflammation in mice; assay type: in vivo, mouse; conditions: for BALF TH2 cytokines (IL-4, -5 and -13): IL-33 intranasal
# Procedure: Male mice in each group, 3-5 weeks old were anesthetized using Isoflurane. The mice were treated intranasal with 200ng/mice/day for four continues days. By the fifth day the mice were killed by CO2 suffocation, and bronchial alveolar lavage fluid (BALF) was extracted using PBS. The lungs were extracted and fixed using 10% para formaldehyde. Immunofluresence of slide sections was performed. Slides were analyzed using anti-PIN1 antibodies and anti-IRAK-M antibodies or IgG as control and were counterstained using DAPI. In some cases, cells obtained from BALF were cytospined and the cells were fixed and stained in the same manner. For staining of the cells, Diff-Quick (Diff-Quik) Staining Protocol were used. All animal work was carried out in compliance with the ethical regulations approved by the Animal Care Committee, Beth Israel Deaconess Medical Center, Boston, MA, USA. The permission was granted to perform animal experiments by the Institutional Animal Care and Use Committee at Beth Israel Deaconess Medical Center, Boston, MA, USA.
# [6] = test system: IRAK-M; test: IRAK-M nuclear localization in DC2.4 cells; assay type: cell-based, C57BL/6; conditions: DC2.4 cells, after IL-33 induction
# Procedure: Suppl em enta ry Figur e 3. a DAPI IR AK-M Pin1 Mergeb […]
# Supplementary Figure 3. Pin1 targets IRAK-M and promotes its nuclear translocation upon IL-33 induction.
# (a) Immunostaining for IRAK-M and Pin1 in DC2.4 cells before and after IL-33 treatment. ( b) DC2.4 cells were treated with IL-33 and subjected to nuclear/cytoplasmic fractionation, followed by Western blot for IRAK-M with actin as a cytoplasmic marker and Fox1 as a nuclear marker. C- cytoplasmic; N- Nuclear.
# (c) Cytospin slides from BALF of the treated WT mice as indicated, were co stained for DC205 and IRAK-M.
# (d) IRAK-M or its mutants S110E or P111A were stably expressed in DC2.4 cells and their localization and Pin1 localization were monitored by immunostaining. (e) GFP-IRAK-M were expressed in Pin1 KO MEFs either with or without RFP-Pin1 as indicated, and their localization was monitored. Scale = 50 µm.
# (also on this page, place not known: Control +IL-33: b DAPIe MergeGFP RFP GFP- GFP-IRAK-M/ RFP MergeIRAK-M Pin1DAPI ControlIL-33 Mergec Supplementary Figure IRAK-M IRAK-M (b) IL-33 IRAK-M IRAK-M Pin1) […]
molecule,measurement,setting,value
"IL-33: Recombinant mouse IL-33 purchased from BioLegend (protein, UniProt Q8BVZ5 1-266, looked up) Interleukin-33: MRPRMKYSNSKISPAKFSSTAGEALVPPCKIRRSQQKTKEFCHVYCMRLRSGLTIRKETSYFRKEPTKRYSLKSGTKHEENFSAYPRDSRKRSLLGSIQAFAASVDTLSIQGTSLLTQSPASLSTYNDQSVSFVLENGCYVINVDDSGKDQEQDQVLLRYYESPCPASQSGDGVDGKKLMVNMSPIKDTDIWLHANDKDYSVELQRGDVSPPEQAFFVLHKKSSDFVSFECKNLPGTYIGVKDNQLALVEEKDESCNNIMFKLSKI",expression of the four target genes,[1],upregulated
same,IL-5 and IL-13 secretion,[2],high levels of IL-5 and -13
same,IL-6 secretion in response to IL-33,[3],abolished IL-6 secretion
same,IRAK-M phosphorylation,[4],IRAK-M was phosphorylated
same,"response (infiltrates, cell counts)","[5]; PIN1 KO mice, intranasal 200 ng/mice/day, 4 days",very mild responses
same,"BALF TH2 cytokines (IL-4, -5 and -13)",[5]; PIN1 KO or IRAK-M KO mice,dramatically attenuated
same,"BALF TH2 cytokines (IL-4, -5, -6 and -13)","[5]; PIN1 KO vs WT mice, IL-33 intranasal 200 ng/mice/day, 4 days",drastically lower
same,"BALF TH2 cytokines (IL-4, -5 and -13)",[5]; WT mice,high levels of TH2 cytokines
same,lung inflammation,"[5]; WT mice, intranasal 200 ng/mice/day, 4 days","moderate to severe inflammation and high levels of infiltrating cells, especially eosinophils"
same,lung inflammation and bronchial remodeling,"[5]; WT mice, intranasal IL-33",severe lung inflammation and bronchial remodeling
same,IRAK-M expression in lung cells,"[5]; WT mice, intranasal IL-33, immunostaining",dramatically increased IRAK-M expression
same,"lung expression of Il6, Csf3, Cxcl2 and Ccl5","[5]; WT mice, whole lung tissue, qRT-PCR",upregulated
same,IRAK-M nuclear localization,[6],also evident in the nucleus
